Consider 2 molecules from patent US20170189519A1.

Settings in all cases: remark: other sources report otherwise
Assay [1] addresses s127H1-t2-cl18long. Description: SEC-MALS with Fab fragments, protein of fraction 3 (ca. 110 kD alone). In general terms: SEC sorts molecules by how far they enter the pores of the column.
In assay [2] the target is s127H1-t2-cl18long. Description: SEC-MALS with Fab fragments, protein of fraction 3.
A further assay has as its target 26H1. Description: ELISA, coated CR6261, P. pastoris culture medium. On the technique in general: An ELISA detects its analyte on a solid surface through an enzyme-linked reagent.
Assay [3] concerns the target s127H1-t2-cl18long.

B1: Fab fragment of CR6261 (Fab, V domains shown)
VH: EVQLVESGAEVKKPGSSVKVSCKASGGPFRSYAISWVRQAPGQGPEWMGGIIPIFGTTKYAPKFQGRVTITADDFAGTVYMELSSLRSEDTAMYYCAKHMGYQVRETMDVWGKGTTVTVSS
VL: QSVLTQPPSVSAAPGQKVTISCSGSSSNIGNDYVSWYQQLPGTAPKLLIYDNNKRPSGIPDRFSGSKSGTSATLGITGLQTGDEANYYCATWDRRPTAYVVFGGGTKLTVLG
In turn, B1 yielded a size of the complex formed in the assay with s127H1-t2-cl18long [1] of 215 kD. Moreover, in the assay with s127H1-t2-cl18long [2], the Fab fragments bound per trimer (Fab fragments) is 3.

B2: CR6261 (antibody, V domains shown)
VH: EVQLVESGAEVKKPGSSVKVSCKASGGPFRSYAISWVRQAPGQGPEWMGGIIPIFGTTKYAPKFQGRVTITADDFAGTVYMELSSLRSEDTAMYYCAKHMGYQVRETMDVWGKGTTVTVSS
VL: QSVLTQPPSVSAAPGQKVTISCSGSSSNIGNDYVSWYQQLPGTAPKLLIYDNNKRPSGIPDRFSGSKSGTSATLGITGLQTGDEANYYCATWDRRPTAYVVFGGGTKLTVLG
The term Kd denotes the concentration at which binding is half-saturated. In the assay with 26H1, B2 had a CR6261 binding signal of 78800. For the same molecule, the Kd with s127H1-t2-cl18long [3] was 0.7 nM.
